This passage reports Wnt11 transcription (qRT-PCR), fold increase after 25 ng/mL BMP4 for 2 hours in primary myotubes results from US20230304012A1.

The target in assay [1] is full length MuSK (wild type mouse, on primary myotubes) (mouse) (UniProt Q61006). The assay is described as follows: cell-based or functional assay.
For assay [2], the target named is ΔIg3-MuSK (mouse, on primary myotubes from ΔIg3-MuSK mice) (mouse) (UniProt Q61006). The assay is described as follows: cell-based or functional assay.

On to BMP4 (ligand), for which the Wnt11 transcription (qRT-PCR), fold increase after 25 ng/mL BMP4 for 2 hours in primary myotubes in assay [1] worked out at 5.8 fold; in assay [2], 2.6 fold.
